US20230080534A1, “SEMG2 ANTIBODY AND USE THEREOF” (SHANGHAI BIOTROY BIOTECHNIQUE CO., LTD., priority 2020, published 2023)

T1: binding between SEMG2 and CD27 (Homo sapiens, UniProt Q02383)
T1 sequence (Q02383 24-582): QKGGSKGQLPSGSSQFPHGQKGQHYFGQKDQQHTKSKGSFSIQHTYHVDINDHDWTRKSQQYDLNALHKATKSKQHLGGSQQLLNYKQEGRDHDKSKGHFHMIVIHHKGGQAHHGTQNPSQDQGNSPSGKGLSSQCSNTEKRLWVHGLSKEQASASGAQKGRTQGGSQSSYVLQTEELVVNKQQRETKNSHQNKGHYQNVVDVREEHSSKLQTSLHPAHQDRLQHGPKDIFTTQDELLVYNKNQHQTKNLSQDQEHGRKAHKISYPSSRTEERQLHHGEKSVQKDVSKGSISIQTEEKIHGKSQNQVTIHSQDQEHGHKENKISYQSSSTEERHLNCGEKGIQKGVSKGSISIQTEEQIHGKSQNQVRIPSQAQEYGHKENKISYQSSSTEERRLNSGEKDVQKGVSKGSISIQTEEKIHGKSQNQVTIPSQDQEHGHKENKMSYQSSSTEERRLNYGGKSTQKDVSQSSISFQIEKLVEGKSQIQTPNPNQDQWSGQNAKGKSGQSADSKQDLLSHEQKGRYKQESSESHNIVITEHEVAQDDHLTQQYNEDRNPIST

B1: MM02: mouse monoclonal antibody against SEMG2(497-509), mIgG2b kappa, VH SEQ ID NO:35, VL SEQ ID NO:42 (antibody, V domains shown)
VH: QIQLVQSGPEVKKPGETVRISCKASGYTLTTAGIQWVQKMPGKGLKWIGWINTHSGVPEYAEDFKGRFAFFLETSASTAYLQISNLKNEDTATYFCARLGLLGYWGQGTTLTVSS
VL: DILLTQSPAILSVSPGERVSFSCRASQSIGTTIHWYQQRTNGSPRLLIKYASESISGIPSRFSGSGSGTDFTLSINSVESEDIADYYCQQSNSWPWTFGGGTKLEIKRA
modifications: UNSURE (1)..(115) VH; UNSURE (1)..(109) VL
B2: MM05: mouse monoclonal antibody against SEMG2(497-509), mIgG1 kappa, VH SEQ ID NO:36, VL SEQ ID NO:43 (antibody, V domains shown)
VH: QVQLQQPGAELVRPGASVKLSCEASGYTFTSYWMNWVKQRPGQGLEWIGMIDPSDSETHYNQMFKDKATLTVDKSSSTAYMQLSSLTSEDSAVYYCARYLGGKEGSFDYWGQGTTLTVSS
VL: DIVMSQSPSSLAVSAGEKVTMSCKSSQSLLNSRTRKNYLAWYQQKPGQSPKLLIYWASTRESGVPDRFTGSGSGTDFTLTISSVQAEDLAVYYCKQSYSLPWTFGGGTKLEIKRA
modifications: UNSURE (1)..(120) VH; UNSURE (1)..(115) VL

Columns and labels:
[1] = biological target: T1, binding between SEMG2 and CD27; experiment: Antibody blocking ELISA of SEMG2 binding to CD27-Fc; conditions: for effect on the binding between SEMG2 and CD27: antibody 10 μg/mL; for blocking of binding between SEMG2 and CD27 with increasing antibody concentration: wide range of concentration
Source text: Because SEMG2 (497-509) sequence fragment is the key epitope of SEMG2 binding to CD27, and has a relatively short sequence, so SEMG2 (497-509) was used as an immunogen to prepare antibodies, which is theoretically easier to obtain functional antibody molecules with the function of blocking the binding between SEMG2 and CD27 than using full-length SEMG2 to prepare antibodies. For direct comparison, the differences in effective concentration of producing antibody by the two methods were verified using ELISA in the examples. Antibodies produced with SEMG2 (497-509) as immunogen and antibodies produced with full-length SEMG2 were added into the enzyme-linked immunosorbent assay (ELISA) reaction system at different concentrations (10^-2, 10^-1, 10^0, 10^1, 10^2, 10^3, 10^4 μg/mL), and the ELISA binding values were measured. The specific steps of enzyme-linked immunosorbent assay are as follows: (1) Dissolve SEMG2 protein antigen with 50 mM carbonate coating buffer (pH 9.6) to make the antigen concentration 10 μg/mL, and add into 96-well ELISA plate (purchased from Corning) at 100 μL/well, place at 4° C. overnight. (2) After discarding the coating solution on the next day, wash with PBST for three times, add 150 μL of 1% BSA to each well, and block for 2 hours at 37° C. […] (4) After washing for 5 times with PBST, add 100 of diluted HRP-labeled anti-human Fe secondary antibody, and incubate at 37° C. for 1 hour. (5) After washing with PBST for 5 times, 20 min after developing with chromogenic agent, the A450 absorption value was read using the microplate reader.
The SEMG2 (497-509) sequence was used to synthesize a polypeptide and coupled to a VLP carrier for immunization; HEK293 cells were used to express the full-length SEMG2 protein, and the purity was tested to reach 92%, and the binding activity of SEMG2 protein to CD27 was verified by ELISA. The protein and polypeptide antigens were used to immunize 10 mice respectively, and multiple immunizations were performed to enhance the effect: (1) The first immunization, 50 μg/mice of antigen, multiple subcutaneous injections together with Freund's complete adjuvant, with an interval of 3 weeks; (2) the second immunization; the same dosage and route as above, with incomplete Freund's adjuvant, and with an interval of 3 weeks; (3) the third immunization, the same dosage as above, without adjuvant, intraperitoneal injection with an interval of 3 weeks; (4) the booster immunization, the dose is 50 μg, intraperitoneal injection. 3 days after the last injection, blood was collected to measure its titer and the immune effect, and mice with higher titers were selected for hybridoma fusion screening. After subcloning, the binding of the monoclonal antibodies to the target antigens was detected by ELISA, and the function of different monoclonal antibodies in blocking the binding between SEMG2 and CD27 was measured by ELISA.
First, SEMG2(497-509) epitope-specific antibodies (for example, MM02, MM05) were compared with other epitope-specific antibodies (for example, HPA042767) for their function in blocking binding between SEMG2 and CD27 at different concentration ranges. […] The blocking function of different antibodies (irrelative mouse IgG, MM02, MM05, HPA042767) on binding between SEMG2 and CD27 was analyzed by the ELISA experiment as described in Example 11.
Further, the effects of different antibodies on the binding between SEMG2 and CD27 were compared under the condition of the same antibody concentration. In the ELISA, the same concentration (10 μg/mL) of antibody was used, and the strength of the binding between SEMG2 and CD27 was measured. […]

DLD1 cells = experiment: Tumor cell killing by activated PBMC; format: cell-based, human; conditions: DLD1, SEMG2-negative
Experimental: (§1) To test the above hypothesis, the effects of different epitope-specific antibodies on tumor cell killing by activated PBMC were compared. Specifically, A375 human melanoma and LOVO human colorectal cancer cells highly expressing SEMG2 were seeded in 96-well plate. Human peripheral blood mononuclear cells (PBMC; #70025, Stem Cell) were activated with 100 ng/mL of CD3 antibody, 100 ng/mL, of CD28 antibody, and 1.0 ng/mL of IL2 (#317303; #302913; #589102, BioLegend), respectively, and co-cultured with the above tumor cells at a ratio of 10:1 in presence of fluorescent caspase-3/7 substrate (#4440, Essen Bioscience). After 1.0 hours, cells were observed under fluorescence microscope.
(§2) To verify the above hypothesis, tumor cells with high SEMG2 expression (A375, LOVO) and SEMG2-negative tumor cells (DLD1, NCM460 and NCI-H1975) were selected. Different antibodies (irrelevant mouse IgG antibodies, MM02 or MM05 antibodies) were added during the PBMC killing experiments for the tumor cells.

NCI-H1975 cells = experiment: Tumor cell killing by activated PBMC; format: cell-based, human; conditions: NCI-H1975, SEMG2-negative
Experimental: as §1, §2

NCM460 cells = experiment: Tumor cell killing by activated PBMC; format: cell-based, human; conditions: NCM460, SEMG2-negative
Experimental: as §1, §2

Molecule	effect on the binding between SEMG2 and CD27 [1]	blocking of binding between SEMG2 and CD27 with increasing antibody concentration [1]	killing by activated PBMC (DLD1 cells)	killing by activated PBMC (NCI-H1975 cells)	killing by activated PBMC (NCM460 cells)
B1	significantly reduced the binding	gradually decreased	no obvious impact	no obvious impact	no obvious impact
B2	significantly reduced the binding	gradually decreased	no obvious impact	no obvious impact	no obvious impact
